Two molecules from publication PMC4540644 (Journal of molecular biology, 2015) can be followed below.

Test in all cases: co-sedimentation
For test [1], the target named is T1, Rabbit skeletal muscle α-actin filaments (F-actin) (rabbit, UniProt P68135 1-377).
Test [2] deals with T1, Rabbit skeletal muscle α-actin …. The source holds these as a separate data set.
Test [3] addresses Yeast (Saccharomyces cerevisiae) actin, wild type, filaments (Saccharomyces cerevisiae, UniProt P60010 1-375).

B1: Human metavinculin tail (MVT, residues 879-1134) (domain or fragment)
chain: EEKDEEFPEQKAGEVINQPMMMAARQLHDEARKWSSKPGIPAAEVGIGVVAEADAADAAGFPVPPDMEDDYEPELLLMPSNQPVNQPILAAAQSLHREATKWSSKGNDIIAAAKRMALLMAEMSRLVRGGSGTKRALIQCAKDIAKASDEVTRLAKEVAKQCTDKRIRTNLLQVCERIPTISTQLKILSTVKATMLGRTNISDEESEQATEMLVHNAQNLMQSVKETVREAEAASIKIRTDAGFTLRWVRKTPWYQ
For B1, the “stoichiometry N” value in test [1] turned out to be 1. The same molecule showed a Kd in test [2] of 560 ± 90 nM.

B2: Human vinculin tail (VT, residues 879-1066) (domain or fragment, UniProt P18206-2 879-1066, looked up)
chain: EEKDEEFPEQKAGEVINQPMMMAARQLHDEARKWSSKGNDIIAAAKRMALLMAEMSRLVRGGSGTKRALIQCAKDIAKASDEVTRLAKEVAKQCTDKRIRTNLLQVCERIPTISTQLKILSTVKATMLGRTNISDEESEQATEMLVHNAQNLMQSVKETVREAEAASIKIRTDAGFTLRWVRKTPWYQ
For the molecule B2, the “stoichiometry N” value in test [1] was 1. Moreover, the binding result in test [3] was “binds”.
